# Data as given in PMC10234410, “Regulation of intestinal stem cell activity by a mitotic cell cycle regulator Polo in Drosophila”.
# B1: F2-4-3 wild-type probe (dsDNA)
# DNA 1: GAATTTGTTGTTCAACACTCAACAAAATACCGCGATACATACCAGAAAGTGTGCGATAGC
# DNA 2: GCTATCGCACACTTTCTGGTATGTATCGCGGTATTTTGTTGAGTGTTGAACAACAAATTC
# B2: F2-4-3 mutant probe (dsDNA)
# DNA 1: GAACGCACGAGCAGACACTCAACAAAATACCGCGATACATACCAGAAAGTGTGCGATAGC
# DNA 2: GCTATCGCACACTTTCTGGTATGTATCGCGGTATTTTGTTGAGTGTCTGCTCGTGCGTTC
# Target: Sox21aHMG-BD (Drosophila melanogaster, UniProt M9PFG6 108-208)
# Sequence (M9PFG6 entry or part of it): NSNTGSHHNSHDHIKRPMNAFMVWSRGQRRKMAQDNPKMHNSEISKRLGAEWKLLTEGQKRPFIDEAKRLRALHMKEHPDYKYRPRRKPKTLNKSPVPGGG
# Experiment: EMSA; 25 mM HEPES pH 7.5, 40 mM KCl, 3 mM DTT, 10% glycerol, 0.1 mM EDTA, 0.5 mg/ml BSA, 0.5 mg/ml poly-glutamate, 25 C, 30 min; 6% native PAGE
# Conditions: protein: recombinant; tags: His-tag at C-terminus (pET-28b); label: Cy5
row,Binder,binding result
1,B1,binds
2,B2,no binding
